Patent US20230021388A1 (VELOSBIO, published 2023)

Biological target: T1, recombinant human ROR1 extracellular domain (human, UniProt Q01973 30-406)
T1 construct: biotinylated for the filter lifts; also called huROR1-ECD; human ROR1-ECD
Assay: ELISA, soluble Fab on coated huROR1-ECD
Procedure: The previously described filter lift assay provides a visual, qualitative assessment of antigen binding (Example 1). In order to assess the ROR1 binding activity of Ab1 Fab in a more quantitative fashion, an ELISA assay was developed. A 96-well Costar-3366 plate was coated with 50 μL/well of 1 μg/mL human ROR1-ECD (ACROBiosystems, cat. #RO1-H522y) in PBS overnight at 4° C. The plate was rinsed once with PBS-T and blocked with 100 μL/well of 5% M-P for 1 h at 25° C. Fab samples were serially diluted 3-fold using 5% M-P and 50 μL/well was incubated for 1 h at 25° C. The plate was washed three times with PBS-T and 50 μL/well anti-human kappa, and HRP conjugate (Southern Biotech, cat. #2060-05) diluted 10,000-fold in 5% M-P was added for 1 h at 25° C. In certain assays (extended wash format), the plate was placed in large volumes (up to 1 L) of PBS-T and incubated, with mixing, for 2-5 h prior to the addition of anti-human kappa, HRP conjugate. The plate was washed three times with PBS-T, and developed with 50 μL/well 1-Step Ultra TMB-ELISA (Thermo Scientific, cat. #34028). The reaction was terminated by the addition of 2 N H2504 and the A450 was determined using a Spectramax plate reader.

T1 sequence (Q01973 30-406 limits assumed): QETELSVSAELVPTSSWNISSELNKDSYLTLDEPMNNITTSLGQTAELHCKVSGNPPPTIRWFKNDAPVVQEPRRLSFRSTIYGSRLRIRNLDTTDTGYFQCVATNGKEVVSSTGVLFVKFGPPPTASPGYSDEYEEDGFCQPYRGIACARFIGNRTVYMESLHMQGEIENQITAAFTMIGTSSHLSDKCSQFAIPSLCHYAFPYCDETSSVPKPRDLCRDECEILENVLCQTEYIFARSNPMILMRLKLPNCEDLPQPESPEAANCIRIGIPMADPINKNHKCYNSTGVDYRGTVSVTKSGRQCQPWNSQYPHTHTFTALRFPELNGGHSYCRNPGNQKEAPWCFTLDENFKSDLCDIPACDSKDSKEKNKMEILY

Binder	Kd [nM]
Ab1 Fab variant H1 A30P (Fab, V domains shown, Fab) VH: QVQLQESGPGLVKPSQTLSLTCTVSGYPFTAYNIHWVRQAPGQGLEWMGSFDPYDGGSSYNQKFKDRLTISKDTSKNQVVLTMTNMDPVDTATYYCARGWYYFDYWGHGTLVTVSS VL: DIVMTQTPLSLPVTPGEPASISCRASKSISKYLAWYQQKPGQAPRLLIYSGSTLQSGIPPRFSGSGYGTDFTLTINNIESEDAAYYFCQQHDESPYTFGEGTKVEIK	12
Ab1 Fab variant H1 A33M (Fab, V domains shown, Fab) VH: QVQLQESGPGLVKPSQTLSLTCTVSGYAFTMYNIHWVRQAPGQGLEWMGSFDPYDGGSSYNQKFKDRLTISKDTSKNQVVLTMTNMDPVDTATYYCARGWYYFDYWGHGTLVTVSS VL: DIVMTQTPLSLPVTPGEPASISCRASKSISKYLAWYQQKPGQAPRLLIYSGSTLQSGIPPRFSGSGYGTDFTLTINNIESEDAAYYFCQQHDESPYTFGEGTKVEIK	15
Ab1 Fab variant H1 F31V (Fab, V domains shown, Fab) VH: QVQLQESGPGLVKPSQTLSLTCTVSGYAVTAYNIHWVRQAPGQGLEWMGSFDPYDGGSSYNQKFKDRLTISKDTSKNQVVLTMTNMDPVDTATYYCARGWYYFDYWGHGTLVTVSS VL: DIVMTQTPLSLPVTPGEPASISCRASKSISKYLAWYQQKPGQAPRLLIYSGSTLQSGIPPRFSGSGYGTDFTLTINNIESEDAAYYFCQQHDESPYTFGEGTKVEIK	8.3
Ab1 Fab variant H1 A30T (Fab, V domains shown, Fab) VH: QVQLQESGPGLVKPSQTLSLTCTVSGYTFTAYNIHWVRQAPGQGLEWMGSFDPYDGGSSYNQKFKDRLTISKDTSKNQVVLTMTNMDPVDTATYYCARGWYYFDYWGHGTLVTVSS VL: DIVMTQTPLSLPVTPGEPASISCRASKSISKYLAWYQQKPGQAPRLLIYSGSTLQSGIPPRFSGSGYGTDFTLTINNIESEDAAYYFCQQHDESPYTFGEGTKVEIK	16
Ab1 Fab variant H1 G27N (Fab, V domains shown, Fab) VH: QVQLQESGPGLVKPSQTLSLTCTVSNYAFTAYNIHWVRQAPGQGLEWMGSFDPYDGGSSYNQKFKDRLTISKDTSKNQVVLTMTNMDPVDTATYYCARGWYYFDYWGHGTLVTVSS VL: DIVMTQTPLSLPVTPGEPASISCRASKSISKYLAWYQQKPGQAPRLLIYSGSTLQSGIPPRFSGSGYGTDFTLTINNIESEDAAYYFCQQHDESPYTFGEGTKVEIK	8.4
Ab1 Fab variant H1 A33S (Fab, V domains shown, Fab) VH: QVQLQESGPGLVKPSQTLSLTCTVSGYAFTSYNIHWVRQAPGQGLEWMGSFDPYDGGSSYNQKFKDRLTISKDTSKNQVVLTMTNMDPVDTATYYCARGWYYFDYWGHGTLVTVSS VL: DIVMTQTPLSLPVTPGEPASISCRASKSISKYLAWYQQKPGQAPRLLIYSGSTLQSGIPPRFSGSGYGTDFTLTINNIESEDAAYYFCQQHDESPYTFGEGTKVEIK	11
Ab1 Fab variant H1 N40P (Fab, V domains shown, Fab) VH: QVQLQESGPGLVKPSQTLSLTCTVSGYAFTAYPIHWVRQAPGQGLEWMGSFDPYDGGSSYNQKFKDRLTISKDTSKNQVVLTMTNMDPVDTATYYCARGWYYFDYWGHGTLVTVSS VL: DIVMTQTPLSLPVTPGEPASISCRASKSISKYLAWYQQKPGQAPRLLIYSGSTLQSGIPPRFSGSGYGTDFTLTINNIESEDAAYYFCQQHDESPYTFGEGTKVEIK	40

These reach a lower Kd. Values come first.

Kd [nM]	Binder
7.1	Ab1 Fab variant H1 Y29G (Fab, V domains shown, Fab) VH: QVQLQESGPGLVKPSQTLSLTCTVSGGAFTAYNIHWVRQAPGQGLEWMGSFDPYDGGSSYNQKFKDRLTISKDTSKNQVVLTMTNMDPVDTATYYCARGWYYFDYWGHGTLVTVSS VL: DIVMTQTPLSLPVTPGEPASISCRASKSISKYLAWYQQKPGQAPRLLIYSGSTLQSGIPPRFSGSGYGTDFTLTINNIESEDAAYYFCQQHDESPYTFGEGTKVEIK
5.8	Ab1 Fab variant H1 F31I (Fab, V domains shown, Fab) VH: QVQLQESGPGLVKPSQTLSLTCTVSGYAITAYNIHWVRQAPGQGLEWMGSFDPYDGGSSYNQKFKDRLTISKDTSKNQVVLTMTNMDPVDTATYYCARGWYYFDYWGHGTLVTVSS VL: DIVMTQTPLSLPVTPGEPASISCRASKSISKYLAWYQQKPGQAPRLLIYSGSTLQSGIPPRFSGSGYGTDFTLTINNIESEDAAYYFCQQHDESPYTFGEGTKVEIK
5.7	Ab1 Fab variant H1 Y39F (Fab, V domains shown, Fab) VH: QVQLQESGPGLVKPSQTLSLTCTVSGYAFTAFNIHWVRQAPGQGLEWMGSFDPYDGGSSYNQKFKDRLTISKDTSKNQVVLTMTNMDPVDTATYYCARGWYYFDYWGHGTLVTVSS VL: DIVMTQTPLSLPVTPGEPASISCRASKSISKYLAWYQQKPGQAPRLLIYSGSTLQSGIPPRFSGSGYGTDFTLTINNIESEDAAYYFCQQHDESPYTFGEGTKVEIK
4.9	Ab1 Fab variant H2 D65E (Fab, V domains shown, Fab) VH: QVQLQESGPGLVKPSQTLSLTCTVSGYAFTAYNIHWVRQAPGQGLEWMGSFDPYEGGSSYNQKFKDRLTISKDTSKNQVVLTMTNMDPVDTATYYCARGWYYFDYWGHGTLVTVSS VL: DIVMTQTPLSLPVTPGEPASISCRASKSISKYLAWYQQKPGQAPRLLIYSGSTLQSGIPPRFSGSGYGTDFTLTINNIESEDAAYYFCQQHDESPYTFGEGTKVEIK
3.3	Ab1 Fab variant H1 Y39W (Fab, V domains shown, Fab) VH: QVQLQESGPGLVKPSQTLSLTCTVSGYAFTAWNIHWVRQAPGQGLEWMGSFDPYDGGSSYNQKFKDRLTISKDTSKNQVVLTMTNMDPVDTATYYCARGWYYFDYWGHGTLVTVSS VL: DIVMTQTPLSLPVTPGEPASISCRASKSISKYLAWYQQKPGQAPRLLIYSGSTLQSGIPPRFSGSGYGTDFTLTINNIESEDAAYYFCQQHDESPYTFGEGTKVEIK
2.2	Ab1 Fab variant H2 G66D (Fab, V domains shown, Fab) VH: QVQLQESGPGLVKPSQTLSLTCTVSGYAFTAYNIHWVRQAPGQGLEWMGSFDPYDDGSSYNQKFKDRLTISKDTSKNQVVLTMTNMDPVDTATYYCARGWYYFDYWGHGTLVTVSS VL: DIVMTQTPLSLPVTPGEPASISCRASKSISKYLAWYQQKPGQAPRLLIYSGSTLQSGIPPRFSGSGYGTDFTLTINNIESEDAAYYFCQQHDESPYTFGEGTKVEIK
1.8	Ab1 Fab variant H2 D76V (Fab, V domains shown, Fab) VH: QVQLQESGPGLVKPSQTLSLTCTVSGYAFTAYNIHWVRQAPGQGLEWMGSFDPYDGGSSYNQKFKVRLTISKDTSKNQVVLTMTNMDPVDTATYYCARGWYYFDYWGHGTLVTVSS VL: DIVMTQTPLSLPVTPGEPASISCRASKSISKYLAWYQQKPGQAPRLLIYSGSTLQSGIPPRFSGSGYGTDFTLTINNIESEDAAYYFCQQHDESPYTFGEGTKVEIK
1.8	Ab1 Fab variant H2 F58I (Fab, V domains shown, Fab) VH: QVQLQESGPGLVKPSQTLSLTCTVSGYAFTAYNIHWVRQAPGQGLEWMGSIDPYDGGSSYNQKFKDRLTISKDTSKNQVVLTMTNMDPVDTATYYCARGWYYFDYWGHGTLVTVSS VL: DIVMTQTPLSLPVTPGEPASISCRASKSISKYLAWYQQKPGQAPRLLIYSGSTLQSGIPPRFSGSGYGTDFTLTINNIESEDAAYYFCQQHDESPYTFGEGTKVEIK
0.9	Ab1 Fab variant H2 F58V (Fab, V domains shown, Fab) VH: QVQLQESGPGLVKPSQTLSLTCTVSGYAFTAYNIHWVRQAPGQGLEWMGSVDPYDGGSSYNQKFKDRLTISKDTSKNQVVLTMTNMDPVDTATYYCARGWYYFDYWGHGTLVTVSS VL: DIVMTQTPLSLPVTPGEPASISCRASKSISKYLAWYQQKPGQAPRLLIYSGSTLQSGIPPRFSGSGYGTDFTLTINNIESEDAAYYFCQQHDESPYTFGEGTKVEIK
